Tested on: locally advanced or metastatic breast cancer
Test: Treatment of patients with locally advanced or metastatic breast cancer
Type: in vivo, human
Protocol: P4-G1-M1.3 is formulated in 20 mM histidine, 100 mM arginine-HCl, 3% sucrose, at pH 5.5 supplemented with 0.002-0.02% of Tween® 80 at concentration range 5-15 mg/mL. P4-G1-M1.3 is administered to patients at 6 mg/kg, 12 mg/kg, 20 mg/kg, 30 mg/kg, 40 mg/kg, 50 mg/kg or 60 mg/kg q7d, ql4d, q21d, or q28d with a loading dose of 12 mg/kg, 20 mg/kg, 40 mg/kg, 40 mg/kg or 60 mg/kg Everolimus is administered to patients at 2.5 mg, 5 mg, or 10 mg orally once a day or once every other day.
Patients with estrogen receptor positive or progesterone receptor positive or triple negative breast cancers that are locally advanced or metastatic, or with any of the tumor types listed in Examples 5-10, are treated with a combination of an effective amount of i) any of the mTOR inhibitors of the preceding examples (at doses as described therein), or with a pan-mTOR inhibitor (INK128, CC223, OSI207, AZD8055, AZD2014, or Palomid529) and ii) an effective amount of P4-G1-M1.3. Patients are dosed with P4-G1-M1.3 as described in Example 1. The dose of pan-mTOR inhibitor is the dose used in phase I or, preferably phase II or III clinical trials.
Postmenopausal women with estrogen receptor-positive locally advanced or metastatic breast cancer are treated with a combination of an effective amount of PI3K inhibitor (e.g., XL147 or BKM120) and an effective amount of P4-G1-M1.3. Patients are dosed with P4-G1-M1.3 as described in Example 1. XL147 is dosed at 25, 50, 100, or 200 mg orally once a day for 21 consecutive days. Alternately BKM120 is dosed at […] orally once a day for 28 consecutive days.
Women with estrogen or progesterone receptor positive locally advanced or metastatic breast cancer are treated with a combination therapy comprising or consisting of administration of an effective amount of an antihormonal therapy (such as tamoxifen, exemestane, letrozole or fulvestrant) and administration of an effective amount of P4-G1-M1.3. P4-G1-M1.3 is formulated and administered as described above. Antihormonal therapy is administered in accordance with manufacturer's directions.
Women with estrogen or progesterone receptor positive locally advanced or metastatic breast cancer are treated with a combination of an effective amount of PI3K/mTOR dual inhibitor NVP-BEZ235 and an effective amount of P4-G1-M1.3. Patients are dosed with P4-G1-M1.3 as described in Example 1. NVP-BEZ235 is given orally twice daily at doses of 400 mg, 600 mg, or 800 mg.
Women with locally advanced or metastatic breast cancer are treated with a combination of an effective amount of docetaxel (Taxotere®) and an effective amount of P4-G1-M1.3. Patients are dosed with P4-G1-M1.3 as described in Example 1. Patients are dosed with docetaxel at 25, 50, 75 or 100 mg/m^2 i.v. once every 3 weeks or per standard clinical practice.
Patients with metastatic breast cancer are treated with a combination of an effective amount of paclitaxel (Taxol®) or of eribulin and an effective amount of P4-G1-M1.3. Patients are dosed with P4-G1-M1 as described in Example 1. Patients are dosed per standard clinical practice for paclitaxel or eribulin.

Measured: treatment outcome

B1: P4-G1-M1.3: anti-IGF-1R+anti-ErbB3 polyvalent bispecific antibody, IgG1-(scFv)2 (SEQ ID NO:148 and SEQ ID NO:149) (protein)
chain 1: EVQLLQSGGGLVQPGGSLRLSCAASGFLFSSYPMHWVRQAPGKGLEWVGSISPSGGATPYADSVKGRFTISRDNSKNTLYLQMNSLRPEDTAVYYCAKDFYNILTGNAFDKWGQGTSVTVSSASTGGGGSGGGGSGGGGSGGGGSDIQLTQSPSSLSASLGDRVTITCRASQGISSYLAWYQQKPGKAPKLLIYAGSTPQSGVPSRFSGSGSGTEFTLTISSLQPEDSGTYYCQQYWTWPLTFGGGTKVEIKRT
chain 2: EVQLVESGGGLVQPGRSLRLSCAASGFTFDDYAMHWVRQAPGKGLEWVSGISWNSGSTGYADSVKGRFTISRDNAKNSLYLQMNSLRAEDTALYYCARDLGYNQWLEGFDYWGQGTLVTVSSASTGGGGSGGGGSGGGGSGGGGSSSELTQDPAVSVALGQTVRITCQGDSLRSYYASWYQQKPGQAPVLVIYGKNNRPSGIPDRFSGSSSGNTASLTITGAQAEDEADYYCMSRDHPGNQWVFGGGTKVTVLG
modifications: Synthetic polypeptide:Anti-IGF-1R scFvs M76; Synthetic polypeptide:Anti-ErbB3 scFvs P6L
combinatorially enhanced outcome: ER or PR positive breast cancer, NVP-BEZ235 + P4-G1-M1.3 | ER or PR positive breast cancer, antihormonal therapy (tamoxifen, exemestane, letrozole or fulvestrant) + P4-G1-M1.3 | ER positive, PR positive or triple negative breast cancers (or tumor types of Examples 5-10), mTOR or pan-mTOR inhibitor + P4-G1-M1.3 | metastatic breast cancer, paclitaxel or eribulin + P4-G1-M1.3 | postmenopausal women, ER-positive breast cancer, PI3K inhibitor (XL147 or BKM120) + P4-G1-M1.3 | women with locally advanced or metastatic breast cancer, docetaxel + P4-G1-M1.3

From patent publication US20180036395A1, “DOSAGE AND ADMINISTRATION OF MONOSPECIFIC AND BISPECIFIC ANTI-IGR-1R AND ANTI-ERBB3 ANTIBODIES” (Merrimack Pharmaceuticals, Inc., priority 2012, published 2018)
